# From patent CN110903389A (FUZHOU MAIXIN BIOTECHNOLOGY DEV CO LTD, dated 2020)
# B1: 抗GFAP蛋白单克隆抗体(10G1G11H7) (antibody, V domains shown)
# VH: EVQLQQSGAELVKPGASVKLSCTASGFNIKDTYMHWVKQRPEQGLEWIGRIDPANGKTKYDPKFQGKATITADTSSNTAYLQLSSLTSEDTAVYYCARRGIMTTVPFAYWGQGTLVTVSA
# VL: DIVMTQAAPSVPVTPGESVSISCRSSKSLLHSNGNTYLYWFLQRPGQSPQLLIYRMSNLTSGVPDRFSGSGSGTAFTLRISRVEAEDVGVYYCMQHLEYPFTFGGGTKLEIK
# Target: T1, 重组GFAP蛋白 (人GFAP第292位至第432位氨基酸片段 + 组氨酸标签, 大肠杆菌表达) (human, UniProt P14136 292-432)
# T1 construct: also called 重组GFAP蛋白片段; 免疫原; not shown: Histidine tag from vector pET28a
# Assay: Indirect ELISA on coated recombinant GFAP protein. The affinity constant was calculated from the antibody concentration at half of the plateau OD450.
# T1 sequence (P14136 292-432): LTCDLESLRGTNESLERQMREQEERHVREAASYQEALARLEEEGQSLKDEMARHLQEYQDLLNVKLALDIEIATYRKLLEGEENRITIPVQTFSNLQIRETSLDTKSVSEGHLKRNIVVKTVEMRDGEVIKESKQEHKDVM
binder,measurement,value
B1,Ka,6.53e+09 M⁻¹
